Blank lines part the entries; values can stand above or below the molecule they belong to.
Key:
[1] = target: FGF receptor on Balb/c 3T3 cells
[2] = target: FGF receptor on Balb/c 3T3 cells; remark: listed apart in the source
[3] = target: FGF receptor on bovine adrenal cortex capillary endothelial (ACE) cells (bovine) (UniProt P12820)
[4] = target: FGF receptor on Balb/c 3T3 cells; assay: competition with [125I]-bFGF on Balb/c 3T3 cells
[5] = target: FGF receptor on Balb/c 3T3 cells; assay: competition with [125I]-bFGF on Balb/c 3T3 cells, no heparin
[6] = target: FGF receptor on Balb/c 3T3 cells; assay: competition with [125I]-bFGF on Balb/c 3T3 cells, 1 ug/ml heparin
[7] = target: T1, FGF receptor on bovine adrenal cortex capillary endothelial (ACE) cells (bovine, UniProt P12820); assay: cell-based or functional assay
T1 sequence: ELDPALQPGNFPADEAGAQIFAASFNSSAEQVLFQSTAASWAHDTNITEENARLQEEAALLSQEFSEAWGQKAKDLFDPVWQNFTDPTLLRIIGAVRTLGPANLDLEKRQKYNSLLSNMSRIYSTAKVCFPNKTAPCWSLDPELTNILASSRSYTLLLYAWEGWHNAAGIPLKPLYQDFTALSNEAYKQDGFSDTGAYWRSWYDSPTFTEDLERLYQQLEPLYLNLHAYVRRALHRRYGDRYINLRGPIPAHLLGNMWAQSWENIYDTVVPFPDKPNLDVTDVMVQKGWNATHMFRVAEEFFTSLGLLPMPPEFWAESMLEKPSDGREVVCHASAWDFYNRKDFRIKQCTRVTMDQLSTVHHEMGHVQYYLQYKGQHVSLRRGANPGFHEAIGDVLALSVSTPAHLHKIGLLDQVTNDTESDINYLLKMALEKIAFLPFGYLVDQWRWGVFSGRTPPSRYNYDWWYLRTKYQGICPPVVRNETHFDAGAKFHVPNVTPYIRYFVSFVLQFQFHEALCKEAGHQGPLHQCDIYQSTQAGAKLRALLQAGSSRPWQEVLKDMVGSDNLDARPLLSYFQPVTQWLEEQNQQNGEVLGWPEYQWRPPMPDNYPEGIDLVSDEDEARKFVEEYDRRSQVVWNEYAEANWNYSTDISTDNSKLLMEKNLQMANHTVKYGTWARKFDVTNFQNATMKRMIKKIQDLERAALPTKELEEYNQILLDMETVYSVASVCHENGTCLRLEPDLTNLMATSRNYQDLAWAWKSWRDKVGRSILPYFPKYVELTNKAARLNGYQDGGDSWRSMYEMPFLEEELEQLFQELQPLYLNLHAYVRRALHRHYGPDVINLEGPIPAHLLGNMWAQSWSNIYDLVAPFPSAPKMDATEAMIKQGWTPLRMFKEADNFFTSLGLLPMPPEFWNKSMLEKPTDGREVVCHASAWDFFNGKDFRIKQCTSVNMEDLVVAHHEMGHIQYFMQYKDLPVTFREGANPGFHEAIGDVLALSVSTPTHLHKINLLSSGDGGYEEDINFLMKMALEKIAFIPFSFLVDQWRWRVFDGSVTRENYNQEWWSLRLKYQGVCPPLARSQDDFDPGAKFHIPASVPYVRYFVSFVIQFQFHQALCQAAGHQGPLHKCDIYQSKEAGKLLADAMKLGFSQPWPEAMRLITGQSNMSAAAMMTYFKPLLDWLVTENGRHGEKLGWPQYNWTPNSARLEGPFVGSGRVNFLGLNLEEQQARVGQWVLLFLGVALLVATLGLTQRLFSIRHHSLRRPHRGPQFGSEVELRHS

- 3T3 Mito., 1 ug/ml heparin (ED50 wild type / ED50 analog x 100%) (% of wild type) [1]: 100
- 3T3 Mito., no heparin (ED50 wild type / ED50 analog x 100%) (% of wild type) [1]: 50
- inhibition of the activity of 1 ng/ml wild type bFGF in the 3T3 mitogenic assay, no heparin [2]: > 95%
Molecule: bFGF(25-155) (from UniProt P09038-2) (ligand)

- 3T3 Mito. (thymidine uptake), EC50 (ED50) [1]: 0.63 ng/mL
- 3T3 Mito., 1 ug/ml heparin (ED50 wild type / ED50 analog x 100%) (% of wild type) [1]: 100
- 3T3 Mito., no heparin (ED50 wild type / ED50 analog x 100%) (% of wild type) [1]: 100
- ACE Mito., 1 ug/ml heparin (ED50 wild type / ED50 analog x 100%) (% of wild type) [3]: 100
- ACE Mito., no heparin (ED50 wild type / ED50 analog x 100%) (% of wild type) [3]: 100
- ACE cell proliferation, EC50 (ED50) [3]: 0.16 ng/mL
- 3T3 mitogenic assay, ED50 in the absence of bFGF(25-155) [2]: < 1 ng/mL
- 3T3 mitogenic assay, ED50 in the presence of 10 ng/ml bFGF(25-155) [2]: 10 ng/mL
- 3T3 mitogenic assay, ED50 in the presence of 100 ng/ml bFGF(25-155) [2]: 100 ng/mL
- EC50 [4]: 10 ng/mL
- FGF-Rc Comp. (ED50 analog / ED50 wild type FGF) [5]: 1
- FGF-Rc Comp. (ED50 analog / ED50 wild type FGF) [6]: 1
Molecule: recombinant human basic FGF (wild type) (from UniProt P09038-2) (ligand)

- 3T3 Mito., 1 ug/ml heparin (ED50 wild type / ED50 analog x 100%) (% of wild type) [1]: 144
- 3T3 Mito., no heparin (ED50 wild type / ED50 analog x 100%) (% of wild type) [1]: 65
- ACE Mito., 1 ug/ml heparin (ED50 wild type / ED50 analog x 100%) [7]: 72 % of wild type
- ACE Mito., no heparin (ED50 wild type / ED50 analog x 100%) [7]: 2 % of wild type
- FGF-Rc Comp. (ED50 analog / ED50 wild type FGF) [5]: 0.45
- FGF-Rc Comp. (ED50 analog / ED50 wild type FGF) [6]: 0.5
B1: bFGF-C34/78/101S (ligand)
chain: MAAGSITTLPALPEDGGSGAFPPGHFKDPKRLYSKNGGFFLRIHPDGRVDGVREKSDPHIKLQLQAEERGVVSIKGVSANRYLAMKEDGRLLASKCVTDESFFFERLESNNYNTYRSRKYTSWYVALKRTGQYKLGSKTGPGQKAILFLPMSAKS
